The values below come from patent US20190359986A1 (ROCHE INNOVATION CENTER COPENHAGEN A S, published 2019).

In the experiment the target is TNF-α. As to the kind of experiment: cell-based or functional assay.

B1: mouse TNFR2 Δ7 (SSO-induced, in serum of SSO 3274 or SSO 3305 treated mice) (receptor)
chain: VPAQVVLTPYKPEPGYECQISQEYYDRKAQMCCAKCPPGQYVKHFCNKTSDTVCADCEASMYTQVWNQFRTCLSCSSSCTTDQVEIRACTKQQNRVCACEAGRYCALKTHSGSCRQCMRLSKCGPGFGVASSRAPNGNVLCKACAPGTFSDTTSSTDVCRPHRICSILAIPGNASTDAVCAPESPTLSAIPRTLYVSQPEPTRSQPLDQEPGPSQTPSILTSLGSTPIIEQSTKGGISLPIEKPSCLQRDAKVPHVPDEKSQDAVGLEQQHLLTTAPSSSSSSLESSASAGDRRAPPGGHPQARVMAEAQGFQEARASSRISDSSHGSHGTHVNVTCIVNVCSSSDHSSQCSSQASATVGDPDAKPSASPKDEQVPFSQEECPSQSPCETTETLQSHEKPLPLGVPDMGMKPSQAGWFDQIAVKVA
With B1, the “EC50, L929 cytotoxicity assay; SSO 3274 treated mice serum” value came out at 0.8 ng/mL and the “EC50, L929 cytotoxicity assay; SSO 3305 treated mice serum” value was 0.6 ng/mL.

B2: human TNFR2 Δ7 without His-tag, from clone 1230-1 transfected HeLa cells (receptor)
chain: LPAQVAFTPYAPEPGSTCRLREYYDQTAQMCCSKCSPGQHAKVFCTKTSDTVCDSCEDSTYTQLWNWVPECLSCGSRCSSDQVETQACTREQNRICTCRPGWYCALSKQEGCRLCAPLRKCRPGFGVARPGTETSDVVCKPCAPGTFSNTTSSTDICRPHQICNVVAIPGNASMDAVCTSTSPTRSMAPGAVHLPQPVSTRSQHTQPTPEPSTAPSTSFLLPMGPSPPAEGSTGDFALPVEKPLCLQREAKVPHLPADKARGTQGPEQQHLLITAPSSSSSSLESSASALDRRAPTRNQPQAPGVEASGAGEARASTGSSDSSPGGHGTQVNVTCIVNVCSSSDHSSQCSSQASSTMGDTDSSPSESPKDEQVPFSKEECAFRSQLETPETLLGSTEEKPLPLGVPDAGMKPS
With B2, the “EC50, L929 cytotoxicity assay; extracellular media from 1230-1 transfected HeLa cells” value worked out at 1.4 ng/mL.

B3: human TNFR2 Δ7 with glutamine 352 changed to arginine, from clone 1138-5 transfected HeLa cells (receptor)
chain: LPAQVAFTPYAPEPGSTCRLREYYDQTAQMCCSKCSPGQHAKVFCTKTSDTVCDSCEDSTYTQLWNWVPECLSCGSRCSSDQVETQACTREQNRICTCRPGWYCALSKQEGCRLCAPLRKCRPGFGVARPGTETSDVVCKPCAPGTFSNTTSSTDICRPHQICNVVAIPGNASMDAVCTSTSPTRSMAPGAVHLPQPVSTRSQHTQPTPEPSTAPSTSFLLPMGPSPPAEGSTGDFALPVEKPLCLQREAKVPHLPADKARGTQGPEQQHLLITAPSSSSSSLESSASALDRRAPTRNQPQAPGVEASGAGEARASTGSSDSSPGGHGTRVNVTCIVNVCSSSDHSSQCSSQASSTMGDTDSSPSESPKDEQVPFSKEECAFRSQLETPETLLGSTEEKPLPLGVPDAGMKPS
As for B3, the “EC50, L929 cytotoxicity assay; extracellular media from 1138-5 transfected HeLa cells” value was found to be 1.8 ng/mL.

B4: human TNFR2 Δ7 with His-tag, from clone 1319-1 transfected HeLa cells (receptor)
chain: LPAQVAFTPYAPEPGSTCRLREYYDQTAQMCCSKCSPGQHAKVFCTKTSDTVCDSCEDSTYTQLWNWVPECLSCGSRCSSDQVETQACTREQNRICTCRPGWYCALSKQEGCRLCAPLRKCRPGFGVARPGTETSDVVCKPCAPGTFSNTTSSTDICRPHQICNVVAIPGNASMDAVCTSTSPTRSMAPGAVHLPQPVSTRSQHTQPTPEPSTAPSTSFLLPMGPSPPAEGSTGDFALPVEKPLCLQREAKVPHLPADKARGTQGPEQQHLLITAPSSSSSSLESSASALDRRAPTRNQPQAPGVEASGAGEARASTGSSDSSPGGHGTQVNVTCIVNVCSSSDHSSQCSSQASSTMGDTDSSPSESPKDEQVPFSKEECAFRSQLETPETLLGSTEEKPLPLGVPDAGMKPSKGQDNSADIQHSGGRSSLEGPRFEGKPIPNPLLGLDSTRTGHHHHHH
modifications: variably glycosylated
For the molecule B4, the “EC50, L929 cytotoxicity assay; extracellular media from 1319-1 transfected HeLa cells” value came out at 1.7 ng/mL.
